The record followed here is the supplement of paper PMC10567573.

To fix the notation:
B1: DCAF4 (parent)
chain: DSHILLCLMGLAETPGCATLLPAS
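Note: lentivirally expressed fusions sorted by FACS into six bins by GFP to DsRed ratio, PSI derived from sequencing read proportions per bin multiplied by bin number.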

The data set covers variants of B1. Briefly: protein stability index of a GFP-peptide fusion (GPS, HEK-293T) (PSI 1-6); higher = more stable. The following applies: c terminus: a fixed tail appended.
For DSHILLCLMGLAEWPGCATLLPAS [T14W], the protein stability index stood at 2.89.

On to DSHILLCLMGLAEEPGCATLLPAS [T14E], for which the protein stability index amounted to 2.95.

Consider DSHILLCLMGLAEDPGCATLLPAS [T14D], for which the protein stability index was 1.92.

As for DSHILLCLMGLAEYPGCATLLPAS [T14Y], the protein stability index came out at 3.79.

Turning to DSHILLCLMGLAECPGCATLLPAS [T14C], the protein stability index was 2.24.

Consider DSHILLCLMGLAERPGCATLLPAS [T14R], for which the protein stability index was 2.05.

For the variant DSHILLCLMGLAELPGCATLLPAS [T14L], the protein stability index was 3.09.

On to DSHILLCLMGLAEKPGCATLLPAS [T14K], for which the protein stability index was determined as 3.42.

Regarding DSHILLCLMGLAEMPGCATLLPAS [T14M], the protein stability index stood at 2.26.

As for DSHILLCLMGLAESPGCATLLPAS [T14S], the protein stability index was 2.47.

Consider DSHILLCLMGLAEPPGCATLLPAS [T14P], for which the protein stability index was determined as 2.53.

DSHILLCLMGLAEHPGCATLLPAS [T14H]: the protein stability index turned out to be 3.66.

Take DSHILLCLMGLAEGPGCATLLPAS [T14G]: the protein stability index was 2.77.

With DSHILLCLMGLAEVPGCATLLPAS [T14V], the protein stability index was 2.66.

Consider DSHILLCLMGLAEAPGCATLLPAS [T14A], for which the protein stability index came out at 2.93.

Regarding DSHILLCLMGLAENPGCATLLPAS [T14N], the protein stability index turned out to be 3.05.

For the variant DSHILLCLMGLAETPVCATLLPAS [G16V], the protein stability index was determined as 2.76.

With DSHILLCLMGLAETPFCATLLPAS [G16F], the protein stability index is 2.85.

In the case of DSHILLCLMGLAETPRCATLLPAS [G16R], the protein stability index worked out at 2.39.

As for DSHILLCLMGLAETPKCATLLPAS [G16K], the protein stability index is 1.38.

Regarding DSHILLCLMGLAETPLCATLLPAS [G16L], the protein stability index was found to be 2.05.

With DSHILLCLMGLAETPPCATLLPAS [G16P], the protein stability index worked out at 4.04.

For the variant DSHILLCLMGLAETPQCATLLPAS [G16Q], the protein stability index is 2.81.

As to DSHILLCLMGLAETPHCATLLPAS [G16H], the protein stability index came out at 2.37.

Regarding DSHILLCLMGLAETPECATLLPAS [G16E], the protein stability index came to 3.54.

As to DSHILLCLMGLAETPMCATLLPAS [G16M], the protein stability index amounted to 2.6.

For the variant DSHILLCLMGLAETPICATLLPAS [G16I], the protein stability index is 2.9.

Take DSHILLCLMGLAETPNCATLLPAS [G16N]: the protein stability index stood at 2.77.

Consider DSHILLCLMGLAETPTCATLLPAS [G16T], for which the protein stability index amounted to 1.99.

DSHILLCLMGLAETPDCATLLPAS [G16D]: the protein stability index worked out at 3.45.

As for DSHILLCLMGLAETPACATLLPAS [G16A], the protein stability index came to 3.16.

Take DSHILLCLMGLAETPYCATLLPAS [G16Y]: the protein stability index came out at 2.65.

In the case of DSHILLCLMGLAETPCCATLLPAS [G16C], the protein stability index came to 3.37.

Turning to DSHILLCLMGLAETPGYATLLPAS [C17Y], the protein stability index came out at 2.55.

Consider DSHILLCLMGLAETPGAATLLPAS [C17A], for which the protein stability index was determined as 2.98.

Turning to DSHILLCLMGLAETPGNATLLPAS [C17N], the protein stability index worked out at 1.99.

In the case of DSHILLCLMGLAETPGWATLLPAS [C17W], the protein stability index was determined as 2.44.

For DSHILLCLMGLAETPGMATLLPAS [C17M], the protein stability index stood at 2.38.

Take DSHILLCLMGLAETPGLATLLPAS [C17L]: the protein stability index came to 2.23.

Regarding DSHILLCLMGLAETPGDATLLPAS [C17D], the protein stability index amounted to 1.47.

Turning to DSHILLCLMGLAETPGGATLLPAS [C17G], the protein stability index was 3.08.

In the case of DSHILLCLMGLAETPGRATLLPAS [C17R], the protein stability index is 1.78.

Consider DSHILLCLMGLAETPGSATLLPAS [C17S], for which the protein stability index amounted to 2.81.

Regarding DSHILLCLMGLAETPGKATLLPAS [C17K], the protein stability index was 1.83.

On to DSHILLCLMGLAETPGFATLLPAS [C17F], for which the protein stability index is 2.34.

On to DSHILLCLMGLAETPGPATLLPAS [C17P], for which the protein stability index was found to be 3.

For DSHILLCLMGLAETPGIATLLPAS [C17I], the protein stability index was determined as 2.04.

DSHILLCLMGLAETPGHATLLPAS [C17H]: the protein stability index was 2.58.

For DSHILLCLMGLAETPGEATLLPAS [C17E], the protein stability index stood at 2.63.

For DSHILLCLMGLAETPGTATLLPAS [C17T], the protein stability index came out at 3.4.

For DSHILLCLMGLAETPGCAILLPAS [T19I], the protein stability index was found to be 2.58.

DSHILLCLMGLAETPGCAALLPAS [T19A]: the protein stability index stood at 2.22.

Regarding DSHILLCLMGLAETPGCALLLPAS [T19L], the protein stability index was found to be 2.15.

As for DSHILLCLMGLAETPGCAKLLPAS [T19K], the protein stability index was 3.24.

As for DSHILLCLMGLAETPGCAELLPAS [T19E], the protein stability index is 3.24.

As for DSHILLCLMGLAETPGCAGLLPAS [T19G], the protein stability index worked out at 2.93.

Regarding DSHILLCLMGLAETPGCADLLPAS [T19D], the protein stability index was 3.26.

With DSHILLCLMGLAETPGCAFLLPAS [T19F], the protein stability index was 3.47.

Take DSHILLCLMGLAETPGCETLLPAS [A18E]: the protein stability index was 2.31.

As to DSHILLCLMGLAETPGCKTLLPAS [A18K], the protein stability index was 2.82.

Consider DSHILLCLMGLAETPGCCTLLPAS [A18C], for which the protein stability index was determined as 4.64.

On to DSHILLCLMGLAETPGCDTLLPAS [A18D], for which the protein stability index worked out at 2.39.

As for DSHILLCLMGLAETPGCFTLLPAS [A18F], the protein stability index turned out to be 2.32.

With DSHILLCLMGLAETPGCGTLLPAS [A18G], the protein stability index came to 1.11.

For the variant DSHILLCLMGLAETPGCSTLLPAS [A18S], the protein stability index turned out to be 1.6.

In the case of DSHILLCLMGLAETPGCLTLLPAS [A18L], the protein stability index worked out at 3.23.

In the case of DSHILLCLMGLAETPGCRTLLPAS [A18R], the protein stability index stood at 3.11.

Turning to DSHILLCLMGLAETPGCVTLLPAS [A18V], the protein stability index was determined as 1.92.

For DSHILLCLMGLAETPGCNTLLPAS [A18N], the protein stability index worked out at 2.07.

DSHILLCLMGLAETPGCMTLLPAS [A18M]: the protein stability index was found to be 3.66.

Take DSHILLCLMGLAETPGCQTLLPAS [A18Q]: the protein stability index turned out to be 2.02.

Turning to DSHILLCLMGLAETPGCPTLLPAS [A18P], the protein stability index is 2.65.

For DSHILLCLMGLAETPGCTTLLPAS [A18T], the protein stability index is 2.3.

In the case of DSHILLCLMGLAETPGCITLLPAS [A18I], the protein stability index stood at 2.33.

For the variant DSHILLCLMGLAETPGCHTLLPAS [A18H], the protein stability index stood at 2.28.

On to DSHILLCLMGLAETPGCYTLLPAS [A18Y], for which the protein stability index was found to be 2.47.

For the variant DSHILLCLMGLAETLGCATLLPAS [P15L], the protein stability index turned out to be 3.33.

DSHILLCLMGLAETVGCATLLPAS [P15V]: the protein stability index is 2.59.

With DSHILLCLMGLAETKGCATLLPAS [P15K], the protein stability index came to 1.78.

Take DSHILLCLMGLAETCGCATLLPAS [P15C]: the protein stability index amounted to 2.61.

Take DSHILLCLMGLAETIGCATLLPAS [P15I]: the protein stability index amounted to 2.35.

With DSHILLCLMGLAETSGCATLLPAS [P15S], the protein stability index came out at 2.52.

In the case of DSHILLCLMGLAETYGCATLLPAS [P15Y], the protein stability index was 2.44.

Consider DSHILLCLMGLAETWGCATLLPAS [P15W], for which the protein stability index was determined as 2.46.

Take DSHILLCLMGLAETRGCATLLPAS [P15R]: the protein stability index stood at 2.66.

On to DSHILLCLMGLAETGGCATLLPAS [P15G], for which the protein stability index was 2.54.

Consider DSHILLCLMGLAETAGCATLLPAS [P15A], for which the protein stability index was 3.15.

In the case of DSHILLCLMGLAETMGCATLLPAS [P15M], the protein stability index stood at 2.44.

DSHILLCLMGLAETFGCATLLPAS [P15F]: the protein stability index was 3.63.

As for DSHILLCLMGLAETDGCATLLPAS [P15D], the protein stability index stood at 2.56.

In the case of DSHILLCLMGLAETNGCATLLPAS [P15N], the protein stability index is 1.35.

On to DSHILLCLMGLAETTGCATLLPAS [P15T], for which the protein stability index worked out at 2.3.

DSHILLCLMGLAETEGCATLLPAS [P15E]: the protein stability index was 2.06.

In the case of DSHILLCLMGLAYTPGCATLLPAS [E13Y], the protein stability index amounted to 3.33.
